14 molecules from patent publication US20230279125A1 (published 2023) can be followed below.

The test deals with T1, extracellular domain of human IL28RA (human, UniProt Q8IU57 21-228).
T1 construct: Plates were 'coated with IL28RA'; also called hIL28RA ECD antigen; hIL28RA
T1 sequence: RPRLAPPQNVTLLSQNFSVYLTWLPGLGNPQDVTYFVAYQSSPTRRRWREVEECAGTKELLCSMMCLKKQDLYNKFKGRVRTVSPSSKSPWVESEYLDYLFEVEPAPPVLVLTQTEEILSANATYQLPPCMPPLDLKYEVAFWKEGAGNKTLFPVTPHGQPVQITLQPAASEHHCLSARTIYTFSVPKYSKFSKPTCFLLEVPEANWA
Kind of test: periplasmic extract ELISA on IL28RA-coated plates, A450 at least threefold over PBS-coated control. As for the experimental part: Upon completion of the biopanning of Example 3, three 96-well plates of individual phage clones were isolated in order to perform periplasmic extract ELISA (PE-ELISA) on IL28RA coated plates to identify positive VHH binders that selectively bound IL28RA . A 96-well plate was coated with IL28RA and PBS under the same conditions. Next, wells were blocked at 37° C. for 1 h. Then, 100 µl of extracted antibodies was added to each well and incubated for 1 h. Subsequently, 100 µl of anti-tag polyclonal antibody conjugated to HRP was added to each well and incubated at 37° C. for 1 h. Plates were developed with TMB substrate. The reaction was stopped by the addition of H2SO4. Absorbance at 450 nm was read on a microtiter plate reader. […] Positive clones were sequenced, and sequences analyzed to identify unique clonotypes

B1: hIL28RA VHH10 (VHH, not shown: large carriers)
VHH: QVQLQESGGGSVQAGGSLRLSCASSGYISSRSTYCMGWFRQAPGKEREVAAVVTGDSRTYYGDSVKGRFAISRDNAKNTLYLQMNSLKPEDTAMYYCAAGPPPCITTMPAGGDYGYRYWGQGTQVTVSS
notes: Camel VHH tested as periplasmic extract of a phage clone (PE-ELISA); also called anti-human IL28RA VHH
Take B1: the binding result was “binds”.

B2: hIL28RA VHH12 (VHH, not shown: large carriers)
VHH: QVQLQESGGGSVQAGGSLRLSCASSGYISSRSTYCMGWFRQAPGKEREVAAIVTGDSRTYYGDSVRGRFAISRDNAKNTLYLQMNSLKPEDTAMYYCAAGPPPCITSMPAGGDYGYRYWGQGTQVTVSS
notes: as for B1
For the molecule B2, the binding result is “binds”.

B3: hIL28RA VHH7 (VHH, not shown: large carriers)
VHH: QVQLQESGGGLVQPGGSLRLSCAASGFTFSNYGMSWVRQAPGKGLEWVSGINSGGDDTFYTDSVKGRFTISRDNAKNTLYLQMNSLKTEDTAMYYCAMGASGMIPRGQGTQVTVSS
notes: as for B1
With B3, the binding result is reported as “binds”.

B4: hIL28RA VHH2 (VHH, not shown: large carriers)
VHH: QVQLQESGGGLVQPGGSLRLSCAASGFTFSNYGMSWVRQAPGKGLEWVSGINSGGDDTFYTDSVKGRFTISRDNAKNTLYLQMNSLKTEDTAMYYCAMGASGMIPRGQGTQITVSS
notes: as for B1
For the molecule B4, the binding result is recorded as “binds”.

B5: hIL28RA VHH9 (VHH, not shown: large carriers)
VHH: QVQLQESGGGLVQPGGSLRLSCAASGFTFSNYGMSWVRQAPGKGLEWVSGINSGGDDTFYTDSVKGRFTISRDNVKNTLYLQMNSLKTEDTAMYYCAMGASGMIPRGQGTQVTVSS
notes: as for B1
Turning to B5, the binding result is recorded as “binds”.

B6: hIL28RA VHH3 (VHH, not shown: large carriers)
VHH: QVQLQESGGGLVQPGGSLRLSCVASGFTFSDYAMSWVRQAPGMGLERVSAIGRDGSTFYPDSVKGRFTISRDNAKNTLYLQLNSLKTEDTAMYYCAKEEPGSSSRGQGTQVTVSS
notes: as for B1
For B6, the binding result is “binds”.

B7: hIL28RA VHH6 (VHH, not shown: large carriers)
VHH: QVQLQESGGGLVQPGGSLRLSCAASGFTFSDYAMSWVRQAPGMGLERVSAIGRDGSTFYPDSVKGRFTISRDNAKNTLYLQLNSLKTEDTAMYYCAKEEPGSSSRGQGTQVTVSS
notes: as for B1
For the molecule B7, the binding result is “binds”.

B8: hIL28RA VHH11 (VHH, not shown: large carriers)
VHH: QVQLQESGGGSVQSGGSLRLSCAASGFTYSSYCMGWFRQAPGKEREGVAAIDSDGSTSYADSVKGRFTISKDNAKNTLYLQMNSLRPEDTAMYYCAADGEYNDYVCWSTGLRYRGQGTQVTVSS
notes: as for B1
Turning to B8, the binding result is “binds”.

B9: hIL28RA VHH1 (VHH, not shown: large carriers)
VHH: QVQLQESGGGSVQAGGSLRLSCASSGYISSSYCMAWFRQAPGKEREGAAGVTRDGKTYYGDSVKGRFAISRDNAKNTLYLQMNSLKPEDTAMYYCAAGPPPCITSMPAGGDYGYRYWGQGTQVTVSS
notes: as for B1
Consider B9, for which the binding result was “binds”.

B10: hIL28RA VHH14 (VHH, not shown: large carriers)
VHH: QVQLQESGGGSVQAGGSLRLSCASSGYISRSSYCMGWFRQAPGKEREVAAIVTGDGRTYYGDSVKGRFAISRDNAKNTLYLQMNSLKPEDTAMYYCVAGPPPCITTMPAGGDYGYRYWGRGTQVTVSS
notes: as for B1
B10: the binding result is listed as “binds”.

B11: hIL28RA VHH5 (VHH, not shown: large carriers)
VHH: QVQLQESGGGLVQPGGSLRLSCAASGFTFSNATMSWVRQAPGKEIEWVSAISNSRGTKYYAAFVKGRFTISRDNAKNTLYLQLNNLKTEDTAMYYCTKDWKTSYSDYDLSDGQGTQVTVSS
notes: as for B1
With B11, the binding result is listed as “binds”.

B12: hIL28RA VHH13 (VHH, not shown: large carriers)
VHH: QVQLQESGGGLVQPGSSLRLSCAASGFTFSNATMSWVRQAPGKEIEWVSAISNSRGTKYYAAFVKGRFTISRDNAKNTLYLQLNNLKTEDTAMYYCTKDWKTSYSDYDLSDGQGTQVTVSS
notes: as for B1
Regarding B12, the binding result is given as “binds”.

B13: hIL28RA VHH8 (VHH, not shown: large carriers)
VHH: QVQLQESGGGSVQAGGSLRLSCAVSRYTISRSDCMGWFRQAPGKEREGVARIGSDGTTSYADSVKERFTISKDNAKNILYLQMNSLKPEDTARYYCAATALLLGRGSACHKEVSVFSWWGQGTQVTVSS
notes: as for B1
On to B13, for which the binding result is reported as “binds”.

B14: hIL28RA VHH4 (VHH, not shown: large carriers)
VHH: QVQLQESGGGSVQLGGSLRLSCLVSGSTDNIKYMGWFRQAPGKEREGVAAVYTSGGAVVYADSVKGRFTISQDDAKNTMYLQMNSLKPEDTAMYYCAASRAPAPPRLLLQRALVEYWGQGTQVTVSS
notes: as for B1
Turning to B14, the binding result is given as “binds”.
